Measurements as given in publication PMC12325948, “14-3-3 binding maintains the Parkinson’s associated kinase LRRK2 in an inactive state” (Nature Communications, 2025).
Substitutions are numbered along the chain they refer to. Names may count otherwise.

Key:
[1] = biological target: N-terminal His-tagged 14-3-3γ (Uniprot P61981) (UniProt P61981); assay: MST; details: parent: est. 210 nM, read off a plot
[2] = biological target: endogenous 14-3-3 (detected with anti-pan-14-3-3) (UniProt P61981); assay: Co-IP
[3] = biological target: Full-length human LRRK2 (Uniprot Q5S007 with R85H mutation), N-terminal 3X-FLAG, purified (human) (UniProt Q5S007); assay: SEC + other: mass photometry; LRRK2 dimers isolated by gel filtration and confirmed by mass photometry
[4] = biological target: Flag-tagged LRRK2 R1728H expressed in HEK293FT cells (human) (UniProt Q5S007); assay: co-IP; HEK293FT cells transfected with WT or mutant Flag-tagged LRRK2, FLAG-M2 resin, elution with 3X-FLAG peptide, blot with anti-pan-14-3-3; ratio of endogenous 14-3-3 to LRRK2; in one panel cells treated with MLi-2 or Rebastinib
[5] = biological target: Flag-tagged LRRK2 WT expressed in HEK293FT cells (human) (UniProt Q5S007); assay: as above
[6] = biological target: LRRK2 mutants at the secondary interface (COR residues) in the Co-IP of Fig. 2d; assay: as above
[7] = biological target: Full-length human LRRK2 (Uniprot Q5S007 with R85H mutation), N-terminal 3X-FLAG, purified, Q5S007; assay: MST; details: chain shown with the change; right graph; 14-3-3 Variants; parent: est. 210 nM; read off a plot
[8] = biological target: Full-length human LRRK2 (Uniprot Q5S007 with R85H mutation), N-terminal 3X-FLAG, purified (human) (UniProt Q5S007)
[9] = biological target: the molecule itself; assay: cryo-EM structure; LRRK2 monomer fraction at 50 mM NaCl with at least 60-fold molar excess of 14-3-3γ, cross-linked with 1 mM BS3, Superose 6; map at 3.96 Å, local refinement 3.87 Å
[10] = biological target: Full-length human LRRK2 (Uniprot Q5S007 with R85H mutation), N-terminal 3X-FLAG, purified (human) (UniProt Q5S007); assay: MST; as a3 with the type I kinase inhibitor MLi-2 at 2 uM
[11] = biological target: Full-length human LRRK2 (Uniprot Q5S007 with R85H mutation), N-terminal 3X-FLAG, purified (human) (UniProt Q5S007); assay: cryo-EM structure; LRRK2 monomer fraction at 50 mM NaCl with at least 60-fold molar excess of 14-3-3γ, cross-linked with 1 mM BS3, Superose 6; map at 3.96 Å, local refinement 3.87 Å
[12] = biological target: Purified LRRK2 mutated at the primary interaction residues S910/S935 (human) (UniProt Q5S007)
[13] = biological target: Purified LRRK2 mutants on the LRRK2 side of the COR:14-3-3_(2) interface (MST, Fig. 2e right); assay: MST; LRRK2 labelled with RED-NHS 2nd generation at 40 nM, 14-3-3 titrated from a 485 µM stock in 1:2 dilutions, 25 °C for 1 h, 1:1 binding model
[14] = biological target: Full-length human LRRK2 (Uniprot Q5S007 with R85H mutation), N-terminal 3X-FLAG, purified (human) (UniProt Q5S007); assay: as above
[15] = biological target: Full-length human LRRK2 (Uniprot Q5S007 with R85H mutation), N-terminal 3X-FLAG, purified (human) (UniProt Q5S007); assay: SEC-MALS; pre-formed dimeric LRRK2 at 130 nM without and with 14-3-3γ at 1 to 100 times that of LRRK2, Superose 6 Increase 15/150, gel filtration buffer
[16] = biological target: Purified LRRK2 mutated at the secondary interaction residue N1730 (human), Q5S007
[17] = biological target: Purified LRRK2 mutated at the secondary interaction residue R1728 (mutant with reduced inhibition) (human), Q5S007
[18] = biological target: Purified LRRK2 mutated at the secondary interaction residue L1727 (human), Q5S007
[19] = biological target: Purified LRRK2 R1441G (human), Q5S007
[20] = biological target: Purified LRRK2 R1628P (human), Q5S007
[21] = biological target: Purified LRRK2 R1728H (human), Q5S007
[22] = in cells, n = 3, parent: est. 1.0, read off a plot
[23] = right graph, Flag-tagged LRRK2 and endogenous 14-3-3, n = 3, parent: est. 1.0, read off a plot
[24] = left graph, Flag-tagged LRRK2 and endogenous 14-3-3, n = 3, parent: est. 1.0, read off a plot

Sequence of Full-length human LRRK2 (Uniprot Q5S007 with R85H mutation), N-terminal 3X-FLAG, purified, Q5S007 (Q5S007 other isoform, or with tags, fused parts or gaps R85H): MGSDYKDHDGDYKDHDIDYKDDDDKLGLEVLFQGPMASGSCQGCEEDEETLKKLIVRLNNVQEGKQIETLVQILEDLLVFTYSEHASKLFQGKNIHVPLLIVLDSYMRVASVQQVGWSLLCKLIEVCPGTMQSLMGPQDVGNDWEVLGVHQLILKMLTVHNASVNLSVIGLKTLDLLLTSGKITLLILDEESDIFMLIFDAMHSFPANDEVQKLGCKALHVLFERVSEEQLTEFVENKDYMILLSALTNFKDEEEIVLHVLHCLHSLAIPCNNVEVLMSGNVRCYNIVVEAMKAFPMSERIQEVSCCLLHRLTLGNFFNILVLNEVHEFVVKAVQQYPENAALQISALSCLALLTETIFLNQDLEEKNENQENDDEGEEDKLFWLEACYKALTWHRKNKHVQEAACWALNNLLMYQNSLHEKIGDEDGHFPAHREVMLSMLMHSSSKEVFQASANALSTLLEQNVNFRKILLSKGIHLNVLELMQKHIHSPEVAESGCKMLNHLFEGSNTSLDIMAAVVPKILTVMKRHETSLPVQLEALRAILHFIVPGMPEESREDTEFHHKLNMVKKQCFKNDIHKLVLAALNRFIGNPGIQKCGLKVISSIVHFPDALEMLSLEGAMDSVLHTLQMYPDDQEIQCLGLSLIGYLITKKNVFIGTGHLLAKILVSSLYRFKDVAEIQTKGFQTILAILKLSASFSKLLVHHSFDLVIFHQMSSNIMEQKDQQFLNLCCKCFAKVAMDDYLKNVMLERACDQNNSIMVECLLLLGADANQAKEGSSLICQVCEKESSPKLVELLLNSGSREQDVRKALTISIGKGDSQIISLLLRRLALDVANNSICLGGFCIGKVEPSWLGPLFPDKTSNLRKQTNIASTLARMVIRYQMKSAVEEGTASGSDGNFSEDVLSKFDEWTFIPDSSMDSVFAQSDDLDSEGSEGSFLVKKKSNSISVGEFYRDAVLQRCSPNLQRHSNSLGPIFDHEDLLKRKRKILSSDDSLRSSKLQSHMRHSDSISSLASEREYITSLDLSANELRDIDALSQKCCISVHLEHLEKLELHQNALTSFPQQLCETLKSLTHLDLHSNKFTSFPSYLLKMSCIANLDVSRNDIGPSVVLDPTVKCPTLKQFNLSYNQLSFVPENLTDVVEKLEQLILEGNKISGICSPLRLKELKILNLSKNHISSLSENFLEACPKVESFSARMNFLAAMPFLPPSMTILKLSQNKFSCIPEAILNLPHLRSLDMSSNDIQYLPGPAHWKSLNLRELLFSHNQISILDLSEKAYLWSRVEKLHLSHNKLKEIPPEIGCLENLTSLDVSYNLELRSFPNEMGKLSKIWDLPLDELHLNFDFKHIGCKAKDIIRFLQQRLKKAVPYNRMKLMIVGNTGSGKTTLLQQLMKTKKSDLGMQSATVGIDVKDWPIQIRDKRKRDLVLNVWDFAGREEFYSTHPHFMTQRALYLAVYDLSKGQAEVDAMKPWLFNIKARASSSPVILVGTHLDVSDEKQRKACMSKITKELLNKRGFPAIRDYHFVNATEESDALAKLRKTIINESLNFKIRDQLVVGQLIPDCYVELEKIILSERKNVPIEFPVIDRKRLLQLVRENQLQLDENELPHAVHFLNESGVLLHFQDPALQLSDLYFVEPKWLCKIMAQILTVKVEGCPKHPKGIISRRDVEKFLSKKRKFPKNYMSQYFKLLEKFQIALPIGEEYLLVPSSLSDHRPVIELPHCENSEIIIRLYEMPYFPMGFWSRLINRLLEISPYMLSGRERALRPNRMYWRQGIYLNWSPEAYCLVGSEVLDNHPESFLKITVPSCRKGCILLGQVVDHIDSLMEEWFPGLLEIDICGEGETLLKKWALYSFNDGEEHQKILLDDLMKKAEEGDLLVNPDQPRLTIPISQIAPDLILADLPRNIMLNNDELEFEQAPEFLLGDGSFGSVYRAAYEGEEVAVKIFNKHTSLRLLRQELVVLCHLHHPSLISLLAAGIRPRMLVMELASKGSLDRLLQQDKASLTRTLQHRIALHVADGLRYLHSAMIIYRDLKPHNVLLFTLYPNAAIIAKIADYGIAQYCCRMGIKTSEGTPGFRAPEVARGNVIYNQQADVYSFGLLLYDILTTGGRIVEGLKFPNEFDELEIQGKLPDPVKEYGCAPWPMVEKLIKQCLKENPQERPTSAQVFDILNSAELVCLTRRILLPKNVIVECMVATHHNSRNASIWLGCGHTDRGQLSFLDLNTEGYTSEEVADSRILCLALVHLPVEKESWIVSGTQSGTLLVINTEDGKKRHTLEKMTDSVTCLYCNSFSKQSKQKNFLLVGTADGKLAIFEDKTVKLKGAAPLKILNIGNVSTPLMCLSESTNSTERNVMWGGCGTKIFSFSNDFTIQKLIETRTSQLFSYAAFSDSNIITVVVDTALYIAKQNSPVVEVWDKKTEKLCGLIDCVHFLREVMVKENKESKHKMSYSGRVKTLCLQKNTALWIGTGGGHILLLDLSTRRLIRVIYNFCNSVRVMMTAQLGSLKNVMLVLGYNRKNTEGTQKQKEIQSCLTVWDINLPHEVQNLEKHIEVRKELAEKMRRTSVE
Sequence of Purified LRRK2 mutated at the primary interaction residues S910/S935 (human) (Q5S007 whole entry S910A/S935A): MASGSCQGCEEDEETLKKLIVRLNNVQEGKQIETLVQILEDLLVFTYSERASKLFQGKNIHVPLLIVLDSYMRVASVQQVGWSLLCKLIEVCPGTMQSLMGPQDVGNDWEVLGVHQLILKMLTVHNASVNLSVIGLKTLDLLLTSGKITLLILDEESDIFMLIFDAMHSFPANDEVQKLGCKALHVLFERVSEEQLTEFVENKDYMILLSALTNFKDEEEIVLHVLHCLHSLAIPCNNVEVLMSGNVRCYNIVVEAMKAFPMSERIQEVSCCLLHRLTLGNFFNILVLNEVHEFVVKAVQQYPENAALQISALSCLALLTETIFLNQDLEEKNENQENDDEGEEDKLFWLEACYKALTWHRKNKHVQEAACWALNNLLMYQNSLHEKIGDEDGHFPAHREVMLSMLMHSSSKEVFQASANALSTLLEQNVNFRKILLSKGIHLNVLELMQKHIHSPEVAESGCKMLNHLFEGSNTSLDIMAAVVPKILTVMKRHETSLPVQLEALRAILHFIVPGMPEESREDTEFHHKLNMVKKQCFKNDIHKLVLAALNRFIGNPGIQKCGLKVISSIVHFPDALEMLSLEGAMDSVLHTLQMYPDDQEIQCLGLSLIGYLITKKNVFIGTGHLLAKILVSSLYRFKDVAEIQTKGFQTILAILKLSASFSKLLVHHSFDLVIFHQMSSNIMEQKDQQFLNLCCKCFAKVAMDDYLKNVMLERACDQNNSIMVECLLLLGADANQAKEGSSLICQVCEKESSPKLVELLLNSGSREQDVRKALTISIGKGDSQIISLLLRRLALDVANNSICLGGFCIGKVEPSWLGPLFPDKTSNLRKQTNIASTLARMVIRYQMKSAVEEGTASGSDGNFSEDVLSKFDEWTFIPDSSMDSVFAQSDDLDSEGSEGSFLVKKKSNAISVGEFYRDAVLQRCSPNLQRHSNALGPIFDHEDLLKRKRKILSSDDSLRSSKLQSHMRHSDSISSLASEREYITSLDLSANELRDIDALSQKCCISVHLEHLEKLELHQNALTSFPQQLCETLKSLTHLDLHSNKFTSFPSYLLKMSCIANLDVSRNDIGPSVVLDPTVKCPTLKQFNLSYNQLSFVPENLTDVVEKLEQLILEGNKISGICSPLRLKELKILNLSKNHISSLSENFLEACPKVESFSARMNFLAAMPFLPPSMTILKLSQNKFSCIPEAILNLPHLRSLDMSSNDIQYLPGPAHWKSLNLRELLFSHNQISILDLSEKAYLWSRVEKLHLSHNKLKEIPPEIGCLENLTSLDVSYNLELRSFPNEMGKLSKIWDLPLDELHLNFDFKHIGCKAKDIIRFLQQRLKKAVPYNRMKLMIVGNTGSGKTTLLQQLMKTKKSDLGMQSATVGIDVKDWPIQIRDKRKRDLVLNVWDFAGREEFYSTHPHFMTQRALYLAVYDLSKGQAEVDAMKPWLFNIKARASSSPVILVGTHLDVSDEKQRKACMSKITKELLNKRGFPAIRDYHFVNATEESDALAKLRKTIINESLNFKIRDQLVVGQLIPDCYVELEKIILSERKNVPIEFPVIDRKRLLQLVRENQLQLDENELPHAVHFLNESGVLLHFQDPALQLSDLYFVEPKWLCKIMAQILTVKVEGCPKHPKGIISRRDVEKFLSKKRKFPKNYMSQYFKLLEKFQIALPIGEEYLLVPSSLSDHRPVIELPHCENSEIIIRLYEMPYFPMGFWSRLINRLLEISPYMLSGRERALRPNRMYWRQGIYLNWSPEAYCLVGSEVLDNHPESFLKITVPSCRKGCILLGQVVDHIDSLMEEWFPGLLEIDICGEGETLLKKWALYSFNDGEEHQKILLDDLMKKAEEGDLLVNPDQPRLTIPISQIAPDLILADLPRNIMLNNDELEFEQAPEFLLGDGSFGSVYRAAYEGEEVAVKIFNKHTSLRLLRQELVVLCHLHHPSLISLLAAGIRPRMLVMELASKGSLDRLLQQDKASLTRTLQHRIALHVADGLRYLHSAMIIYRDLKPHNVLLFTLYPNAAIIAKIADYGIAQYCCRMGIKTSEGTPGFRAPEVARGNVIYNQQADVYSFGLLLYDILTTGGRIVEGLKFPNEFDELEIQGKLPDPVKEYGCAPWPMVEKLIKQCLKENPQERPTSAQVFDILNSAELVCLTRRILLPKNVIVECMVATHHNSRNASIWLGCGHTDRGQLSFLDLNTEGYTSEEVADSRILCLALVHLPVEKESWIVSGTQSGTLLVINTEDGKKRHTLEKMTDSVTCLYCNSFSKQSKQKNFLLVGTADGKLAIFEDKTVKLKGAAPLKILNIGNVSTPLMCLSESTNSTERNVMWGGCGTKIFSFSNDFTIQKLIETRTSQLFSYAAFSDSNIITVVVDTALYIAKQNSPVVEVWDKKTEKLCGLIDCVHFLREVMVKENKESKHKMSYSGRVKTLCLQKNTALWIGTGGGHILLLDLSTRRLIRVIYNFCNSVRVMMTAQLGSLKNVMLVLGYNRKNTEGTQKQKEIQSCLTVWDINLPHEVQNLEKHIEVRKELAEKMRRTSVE
Sequence of Purified LRRK2 R1441G (human), Q5S007 (Q5S007 whole entry R1441G): as the sequence (Q5S007 whole entry S910A/S935A) above, with A910S, A935S, R1441G counted along it
Sequence of Purified LRRK2 R1628P (human), Q5S007 (Q5S007 whole entry R1628P): as the sequence (Q5S007 whole entry S910A/S935A) above, with A910S, A935S, R1628P counted along it

Full-length human LRRK2 (Uniprot Q5S007 with R85H mutation), N-terminal 3X-FLAG, purified, Q5S007 S910A; S935A
Kd ([1]; left graph, bar labelled S910/S935A): 230 µM

Full-length human LRRK2 (Uniprot Q5S007 with R85H mutation), N-terminal 3X-FLAG, purified, Q5S007 L1727A
Kd ([1]; right graph, LRRK2 Variants): 0.47 µM

Flag-tagged LRRK2 WT expressed in HEK293FT cells, Q5S007 R1441G
ratio to parent [2, 22]: 0.07

Flag-tagged LRRK2 WT expressed in HEK293FT cells, Q5S007 R1628P
ratio to parent [2, 22]: 1.6

Flag-tagged LRRK2 WT expressed in HEK293FT cells, Q5S007 R1728A
ratio to parent ([2]; right graph, Flag-tagged LRRK2 and endogenous 14-3-3, n = 3, marked ns against WT, parent: est. 1.0, read off a plot): 0.98

Flag-tagged LRRK2 WT expressed in HEK293FT cells, Q5S007 N1730A
ratio to parent [2, 23]: 0.18

Full-length human LRRK2 (Uniprot Q5S007 with R85H mutation), N-terminal 3X-FLAG, purified (from UniProt Q5S007 1-2527) (enzyme)
stoichiometry N [3]: 2

Flag-tagged LRRK2 WT expressed in HEK293FT cells, Q5S007 G2019S
ratio to parent [2, 22]: 1.5

Flag-tagged LRRK2 WT expressed in HEK293FT cells, Q5S007 S1636A
ratio to parent [2, 24]: 0.54

Flag-tagged LRRK2 WT expressed in HEK293FT cells, Q5S007 L1635A
ratio to parent [2, 24]: 0.11

Full-length human LRRK2 (Uniprot Q5S007 with R85H mutation), N-terminal 3X-FLAG, purified, Q5S007 R1728A
Kd ([1]; right graph, LRRK2 Variants): 0.56 µM

Flag-tagged LRRK2 WT expressed in HEK293FT cells, Q5S007 S910A; S935A
ratio to parent [2, 22]: 0.02
ratio to parent [2, 24]: 0.03
ratio to parent [2, 23]: 0.01

Flag-tagged LRRK2 WT expressed in HEK293FT cells, Q5S007 E1632A
ratio to parent [2, 24]: 0.07

endogenous 14-3-3 (detected with anti-pan-14-3-3) (from UniProt P61981 1-247) (natural protein)
percent decrease in binding relative to WT [4]: 50%
fold decrease in co-immunoprecipitated 14-3-3 after treatment of the cells with MLi-2 [5]: 7 fold
fold decrease in co-immunoprecipitated 14-3-3 [6]: 2 to 13 fold
percent reduction in binding against WT [6]: 40 to 90%

Flag-tagged LRRK2 WT expressed in HEK293FT cells, Q5S007 L1727A
ratio to parent [2, 23]: 0.63

B1: N-terminal His-tagged 14-3-3γ (Uniprot P61981), P61981 Y216A (protein)
chain: MVDREQLVQKARLAEQAERYDDMAAAMKNVTELNEPLSNEERNLLSVAYKNVVGARRSSWRVISSIEQKTSADGNEKKIEMVRAYREKIEKELEAVCQDVLSLLDNYLIKNCSETQYESKVFYLKMKGDYYRYLAEVATGEKRATVVESSEKAYSEAHEISKEHMQPTHPIRLGLALNYSVFYYEIQNAPEQACHLAKTAFDDAIAELDTLNEDSAKDSTLIMQLLRDNLTLWTSDQQDDDGGEGNN
Kd [7]: 0.68 µM

B2: N-terminal His-tagged 14-3-3γ (Uniprot P61981), P61981 R227A (protein)
chain: B1 chain with A216Y, R227A
Kd [7]: 0.64 µM

B3: N-terminal His-tagged 14-3-3γ (Uniprot P61981), P61981 Q224A (protein)
chain: B1 chain with A216Y, Q224A
Kd [7]: 0.49 µM

B4: N-terminal His-tagged 14-3-3γ (Uniprot P61981) (natural protein, human)
chain: B1 chain with A216Y
notes: 14-3-3γ, Uniprot P61981; A TEV site follows the His tag; no cleavage is described; also called 14-3-3 gamma; 14-3-3 dimer; source: E. coli BL21*(DE3), purified (Ni-NTA, Superdex 75)
inhibition of Rab10 phosphorylation by LRRK2 in an in vitro kinase assay, 14-3-3 from 0 to 300 µM [8]: 50%
stoichiometry N [9]: 2
fold decrease in binding affinity with MLi-2 against no inhibitor [10]: 2 fold
stoichiometry N (14-3-3 dimer per LRRK2 monomer) [11]: 1
inhibition of Rab10 phosphorylation by LRRK2 in an in vitro kinase assay, 14-3-3 at 300 µM [12]: 25%
fold increase in KD against the wild-type pair [13]: 2 to 3 fold
Kd [14]: 0.212 µM
stoichiometry N (14-3-3γ dimer per LRRK2 dimer) [15]: 1

B5: N-terminal His-tagged 14-3-3γ (Uniprot P61981), P61981 1-247 (natural protein)
chain: B1 chain with A216Y
inhibition of Rab10 phosphorylation by LRRK2 in an in vitro kinase assay, 14-3-3 at 300 µM [16]: 25%
inhibition of Rab10 phosphorylation by LRRK2 in an in vitro kinase assay, 14-3-3 at 300 µM [17]: 25%
inhibition of Rab10 phosphorylation by LRRK2 in an in vitro kinase assay, 14-3-3 at 300 µM [18]: 25%
reduction of the 14-3-3 mediated inhibition of LRRK2 kinase activity [19]: 30%
reduction of the inhibition of LRRK2 kinase activity by 14-3-3 compared to WT [20]: 20%
reduction of the inhibition of LRRK2 kinase activity by 14-3-3 compared to WT [21]: 20%
